Target: T1, mouse mMLH1 (mouse, UniProt Q9JK91 1-760)
T1 sequence (looked up): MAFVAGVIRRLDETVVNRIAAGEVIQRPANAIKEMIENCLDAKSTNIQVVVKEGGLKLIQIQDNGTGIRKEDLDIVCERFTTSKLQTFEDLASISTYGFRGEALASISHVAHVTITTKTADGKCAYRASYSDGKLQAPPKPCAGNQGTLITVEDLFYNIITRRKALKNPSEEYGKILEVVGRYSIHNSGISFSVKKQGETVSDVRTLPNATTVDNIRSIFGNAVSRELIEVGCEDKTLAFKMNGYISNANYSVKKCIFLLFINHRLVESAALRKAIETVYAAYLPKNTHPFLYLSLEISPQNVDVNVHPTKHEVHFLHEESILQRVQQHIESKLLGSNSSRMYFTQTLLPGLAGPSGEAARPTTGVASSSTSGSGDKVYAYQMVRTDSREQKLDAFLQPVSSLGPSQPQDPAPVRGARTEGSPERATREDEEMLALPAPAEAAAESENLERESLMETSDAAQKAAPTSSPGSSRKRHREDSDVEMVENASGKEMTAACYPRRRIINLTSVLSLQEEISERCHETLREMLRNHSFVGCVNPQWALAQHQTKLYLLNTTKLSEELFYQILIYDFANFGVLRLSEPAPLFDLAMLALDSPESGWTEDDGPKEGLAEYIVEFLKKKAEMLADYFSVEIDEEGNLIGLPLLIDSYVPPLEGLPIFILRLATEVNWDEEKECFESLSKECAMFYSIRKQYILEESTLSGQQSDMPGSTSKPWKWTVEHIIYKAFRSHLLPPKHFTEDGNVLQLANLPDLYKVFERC
Experiment: pull-down

- binding result: binds
B1: GST-hRad9 (natural protein, human, UniProt Q99638 1-391, looked up)
chain: MKCLVTGGNVKVLGKAVHSLSRIGDELYLEPLEDGLSLRTVNSSRSAYACFLFAPLFFQQYQAATPGQDLLRCKILMKSFLSVFRSLAMLEKTVEKCCISLNGRSSRLVVQLHCKFGVRKTHNLSFQDCESLQAVFDPASCPHMLRAPARVLGEAVLPFSPALAEVTLGIGRGRRVILRSYHEEEADSTAKAMVTEMCLGEEDFQQLQAQEGVAITFCLKEFRGLLSFAESANLNLSIHFDAPGRPAIFTIKDSLLDGHFVLATLSDTDSHSQDLGSPERHQPVPQLQAHSTPHPDDFANDDIDSYMIAMETTIGNEGSRVLPSISLSPGPQPPKSPGPHSEEEDEAEPSTVPGTPPPKKFRSLFFGSILAPVRSPQGPSPVLAEDSEGEG

— publication PMC2582629 (Nucleic Acids Research, 2008)
